# Reference: article PMC10528150, “Mutant Cytochrome C as a Potential Detector of Superoxide Generation: Effect of Mutations on the Function and Properties” (Cells, 2023)
# Target: cytochrome c oxidase (ferrocytochrome c:oxygen oxidoreductase), solubilized complex
# Assay: cell-based or functional assay
row,"Activity in the cytochrome c oxidase reaction, % of WT",Binder
1,100%,"cytochrome c wild type (recombinant horse heart CytC) (natural protein, heme c (hemoporphyrin type c, Fe ligated by His18 and Met80)) not shown"
2,< 1%,"cytochrome c with substitutions K8E/K27E/E62K/E69K/K72E/K86E/K87E/E90K (natural protein, heme c (hemoporphyrin type c)) not shown"
